Non-standard residues stand in square brackets, D forms with d. No end group written: not given here. pY = N[C@@H](Cc1ccc(OP(=O)(O)O)cc1)C(=O)O
Tests used:
[1] = biological target: 5-FAM-SMG9 peptide (human) (UniProt Q9H0W8); assay: fluorescence polarisation
OGT = biological target: T1, OGT (Homo sapiens, UniProt O15294); assay: Competitive fluorescence polarization; conditions: FP competition with 5-FAM-SMG9 for OGT binding, n=3
T1 sequence (O15294 1-1046): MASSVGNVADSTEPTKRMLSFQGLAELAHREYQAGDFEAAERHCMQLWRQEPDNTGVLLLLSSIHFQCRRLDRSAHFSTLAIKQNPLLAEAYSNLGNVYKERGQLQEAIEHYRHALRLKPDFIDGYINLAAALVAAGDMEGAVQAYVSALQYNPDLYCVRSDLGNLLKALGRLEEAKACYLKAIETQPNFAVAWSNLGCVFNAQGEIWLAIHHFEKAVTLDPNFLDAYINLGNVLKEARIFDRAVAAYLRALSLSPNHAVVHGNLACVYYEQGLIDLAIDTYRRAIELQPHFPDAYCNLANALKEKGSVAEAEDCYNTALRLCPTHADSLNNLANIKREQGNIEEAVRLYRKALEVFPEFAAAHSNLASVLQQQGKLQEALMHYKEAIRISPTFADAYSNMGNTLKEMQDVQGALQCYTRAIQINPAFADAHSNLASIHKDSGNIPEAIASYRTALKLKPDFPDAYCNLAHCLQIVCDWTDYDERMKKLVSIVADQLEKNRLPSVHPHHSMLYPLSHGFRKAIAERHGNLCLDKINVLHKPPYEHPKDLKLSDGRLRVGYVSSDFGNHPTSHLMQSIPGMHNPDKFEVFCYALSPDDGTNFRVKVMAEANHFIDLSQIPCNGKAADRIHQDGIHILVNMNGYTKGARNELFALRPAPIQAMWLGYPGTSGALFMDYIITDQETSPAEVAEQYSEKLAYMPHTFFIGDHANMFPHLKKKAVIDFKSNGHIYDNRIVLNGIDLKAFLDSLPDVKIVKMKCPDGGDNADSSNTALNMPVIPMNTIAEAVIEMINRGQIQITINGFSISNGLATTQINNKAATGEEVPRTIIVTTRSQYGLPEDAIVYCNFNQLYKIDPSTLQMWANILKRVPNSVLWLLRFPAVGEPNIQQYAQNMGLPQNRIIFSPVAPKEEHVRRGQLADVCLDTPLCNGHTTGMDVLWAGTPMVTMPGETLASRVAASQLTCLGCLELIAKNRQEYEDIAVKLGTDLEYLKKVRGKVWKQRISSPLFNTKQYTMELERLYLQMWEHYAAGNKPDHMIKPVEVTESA

## OGT N791A (enzyme)
[1]
  fold shift of EC50 against WT OGT: > 10 fold

## OGT I734R (enzyme)
[1]
  fold shift of EC50 against WT OGT: > 10 fold

## OGT F723E (enzyme)
[1]
  fold shift of EC50 against WT OGT: > 10 fold

## SMG9 pY147: phosphorylated SMG9 peptide (pY147) (QRPTQPV[pY]QIQNRGMG)
OGT
  peptide binding to OGT: disrupted peptide binding, to a similar degree as Y147F

— PMC10723112 (Nature chemical biology, 2023)
